The results in this text go back to patent US20250019451A1 (HIFIBIO, published 2025).

The chains are these.
T1: mouse CCR8 (mouse, UniProt P56484 1-353)
T1 construct: Transiently expressed on ExpiHEK293 cells, fused to GFP via cleavable linker
T1 sequence: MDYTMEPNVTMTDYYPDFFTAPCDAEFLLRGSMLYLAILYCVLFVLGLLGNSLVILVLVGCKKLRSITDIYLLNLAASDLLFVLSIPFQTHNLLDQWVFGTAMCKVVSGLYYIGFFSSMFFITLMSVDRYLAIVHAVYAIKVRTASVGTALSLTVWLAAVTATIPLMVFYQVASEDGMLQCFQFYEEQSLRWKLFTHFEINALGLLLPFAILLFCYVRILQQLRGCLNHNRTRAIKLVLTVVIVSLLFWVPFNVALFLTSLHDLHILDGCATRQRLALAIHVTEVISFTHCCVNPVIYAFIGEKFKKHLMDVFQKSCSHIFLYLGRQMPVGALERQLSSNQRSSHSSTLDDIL

T2: human CCR4 (human, UniProt P51679 1-360)
T2 construct: Expressed on cells for flow cytometry; also called hCCR4
T2 sequence: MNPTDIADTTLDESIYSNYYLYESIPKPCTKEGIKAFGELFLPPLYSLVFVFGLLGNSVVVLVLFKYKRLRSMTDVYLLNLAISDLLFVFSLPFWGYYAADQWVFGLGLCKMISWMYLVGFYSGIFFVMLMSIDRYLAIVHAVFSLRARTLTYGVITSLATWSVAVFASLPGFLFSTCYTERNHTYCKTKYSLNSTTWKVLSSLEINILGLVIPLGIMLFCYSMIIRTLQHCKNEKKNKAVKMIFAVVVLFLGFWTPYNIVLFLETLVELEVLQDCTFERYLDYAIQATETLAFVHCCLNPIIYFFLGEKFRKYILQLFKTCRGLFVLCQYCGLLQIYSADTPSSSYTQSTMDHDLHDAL

B1: HFB11-21 (antibody, human IgG1, V domains shown)
VH: QVQLQQPGAELVKPGASVKLSCKASGYTFISYWMHWVKQRPGRGLEWIGRIDPNSGKTKYNEKFKTKATLTVDKSSSTAYMHLNSLTSDDSAVYYCAREGWGDYWGQGTTLTVSS
VL: DIVLTQSPASLAVSLGQRATISCRASESVDNYGISFMHWYQQKPGQPPRLLIYRASNLASGIPARFSGSGSSTDFTLTINPVETDDIATYYCQQSNKDPRTFGGGTKLEIK
notes: also called HFB-21
B2: HFB11-2 (antibody, human IgG1, V domains shown)
VH: EVQLVESGGGLVQPKGSLKLSCAASGFSFNTYAMNWVRQAPGKGLEWVARIRSKSNNYATYYADSVKDRFTISRDDSERMLYLQMNNLKTEDTAMYYCVRGGSYYSNHYFDYWGQGTTLTVSS
VL: DIVMTQAAPSVPVTPGESVSISCRSSKSLLHSNGNTYLYWFLQRPGQSPQLLIYQMSNLASGVPDRFSGSGSGTAFTLRISRVEAEDVGVYYCMQHLEYPFTFGAGTKLELK
B3: HFB11-19 (antibody, human IgG1, V domains shown)
VH: QVQLQQSGAELVKPGASVKLSCKASGYTFTDYIIHWVKQRSGQGLEWIGWFSPRNNYVKYNERFTDKATLTADKSSNTVYMELSSLTSEDSAVYFCSRHGRNSIGFAYWGQGTLVTVSA
VL: B2 VL with H31N, Q55R, F101Y, A105G, L111I
B4: HFB11-10 parental antibody (non-humanized) in ADCC enhanced format (antibody, V domains shown)
VH: EVQLVETGGGLVQPKGSLKLSCAASGFRFNTNAMNWVRQAPGKDLEWVARIRSKSNNYATYYADSVKDRFTISRDDSQSMLYLQMNNVKTEDTAMYYCVRGSDNNYYYAMDYWGQGTSVTVSS
VL: B2 VL with Q55R, A105S, L111I
B5: HFB11-3 (antibody, human IgG1, V domains shown)
VH: EVQLVESGGGLVQPQGSLKLSCAASGFSFNTYAMNWVRQAPGKGLQWVARIRSKSNNYATYYADSVKDRFTISRDDSESMLYLQMNNLKTEDAAMYYCVRGKDANYFYAMDYWGQGTSVTVSS
VL: B2 VL with Q55R
B6: HFB11-5 (antibody, human IgG1, V domains shown)
VH: EVQLVESGGGLVQPRGSLKLSCTASGFSFNAYAMNWVRQAPGKGLEWVARIRTKSNNYATYYADSVKDRFTISRDDSESMLYLQMKNLKTEDTAMYYCVRGGYGNGGYYFDYWGQGTTLTVSS
VL: B2 VL with P12T, V19A, S32R, T36S, Q55R, M56I, A105S, L111I
B7: HFB11-10 (antibody, V domains shown)
VH: B4 VH
VL: B2 VL with Q55R, A105S, L111I
notes: Mouse variable domains; also called H11-10
B8: HFB11-8 (antibody, human IgG1, V domains shown)
VH: B4 VH with D44G, Y61H, A63V, I72V, V88L, T90A
VL: B2 VL with Q55R, A75S, A85V, A105S, L111I

Where a chain is given by its changes, count along the chain named.

T4 sequence (O97665 other isoform, or with tags, fused parts or gaps): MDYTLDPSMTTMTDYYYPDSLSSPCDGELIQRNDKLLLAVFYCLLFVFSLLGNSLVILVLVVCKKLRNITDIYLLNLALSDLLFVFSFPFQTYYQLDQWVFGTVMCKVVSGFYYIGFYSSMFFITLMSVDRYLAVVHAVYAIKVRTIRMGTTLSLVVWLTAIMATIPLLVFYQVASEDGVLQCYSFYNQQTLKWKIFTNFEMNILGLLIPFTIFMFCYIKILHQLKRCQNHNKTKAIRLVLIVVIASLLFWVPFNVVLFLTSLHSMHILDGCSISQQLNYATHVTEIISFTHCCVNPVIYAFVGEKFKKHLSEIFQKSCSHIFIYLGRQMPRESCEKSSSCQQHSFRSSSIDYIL

For the first assay, the target named is T3, human CCR8 (human, UniProt P51685 1-355).
T3 construct: also called hCCR8; chemokine (C-C motif) receptor 8
The experiment in a line: flow cytometry on transiently transfected ExpiHEK293 cells, 50 nM antibody. The protocol: (§1) Briefly, purified antibodies (saturating concentration of 50 nM, FIG. 3A or concentration range from 100 nM, 3-fold dilution, FIGS. 3B-3C) were incubated with 1×10⁵ ExpiHEK293 cells transiently transfected with either human (SEQ ID NO:11; Uniprot/Swiss-Prot: P51685), mouse CCR8 (SEQ ID NO: 64; Uniprot/Swiss-Prot: P56484), or cynoCCR8 (SEQ ID NO: 65; Uniprot/Swiss-Prot: G7NYJ2) fused to GFP protein via cleavable linker, for 30 minutes at 4° C. After washing, secondary anti-human-AF647 antibody (Jackson ImmunoResearch; West Grove, PA) was incubated at 12 nM for 30 minutes in PBS. After washing, cell pellets were resuspended in 50 μL PBS and samples were analyzed by flow cytometry on iQue cytometer (Sartorious, Goettingen, Germany) using Forecyt software (Intellicyt, Ann Arbor, MI). Mean of fluorescence intensity for the specific signal among GFP+ cells are represented in FIGS. 3A-3C. Titration curve of cross-reactive antibodies against mouse CCR8 and cyno CCR8 are presented in FIGS. 3B and 3C, respectively.
Background: In flow cytometry, cells or beads pass a laser one at a time.
In the case of B1, the binding result is “binds”.
Take B2: the binding result is given as “binds”.
Still for that read-out and setting: the same measure for B3: “binds”.

The next assay deals with T3, human CCR8. Description: cell-based or functional assay.
As to B4, the “ADCC NK killing of M300.19 cells expressing low copies of CCR8, EC50” value came out at 0.003 nM.

Another assay deals with T1, mouse CCR8. Description: flow cytometry on ExpiHEK293 cells transiently expressing mouse CCR8. As to the method: as §1
For B5, the binding result is reported as “no binding (tested: 50 nM)”.
Still for that read-out and setting: to B6 belongs “no binding (tested: 50 nM)”; to B7, “no binding (tested: 50 nM)”; to B8, “no binding (tested: 50 nM)”.

A further assay addresses T3, human CCR8. Description: flow cytometry on ExpiHEK293 cells transiently expressing human CCR8, 50 nM antibody. The protocol:
as §1
On to B6, for which the binding result is “binds”.
Still for that read-out and setting: the same measure for B8: “binds”.

The target of the next assay is T1, mouse CCR8. Description: flow cytometry titration on ExpiHEK293 cells transiently expressing mouse CCR8. As to the method:
as §1
The EC50 is the midpoint of the concentration-response curve. On to B1, for which the EC50 came out at 53 nM.
For B2, the EC50 was under 1 nM.

For the next assay, the target named is T2, human CCR4. Description: flow cytometry on transiently transfected ExpiHEK293 cells.
As to B1, the binding result was “no binding (tested: 50 nM)”.
Still for that read-out and setting: the same measure for B2: “no binding (tested: 50 nM)”; for B3: “no binding (tested: 50 nM)”.
The same measure, in the same setting: to B5 belongs “no binding (tested: 50 nM)”.
As for B6, the binding result is “no binding (tested: 50 nM)”.
Turning to B7, the binding result is listed as “no binding (tested: 50 nM)”.
As for B8, the binding result was “no binding (tested: 50 nM)”.

A further assay addresses T4, cynoCCR8 (cynomolgus, UniProt O97665 1-356 (rhesus entry)).
T4 construct: Transiently expressed on ExpiHEK293 cells, fused to GFP via cleavable linker; also called cynomolgus CCR8
Description: flow cytometry on ExpiHEK293 cells transiently expressing cynoCCR8. As to the method: as §1
In the case of B5, the binding result was “no binding (tested: 50 nM)”.
Consider B6, for which the binding result was “no binding (tested: 50 nM)”.
On to B7, for which the binding result was “no binding (tested: 50 nM)”.
Same read-out and setting: to B8 belongs “no binding (tested: 50 nM)”.

The target of the next assay is T4, cynoCCR8. Description: flow cytometry titration on ExpiHEK293 cells transiently expressing cynoCCR8. As to the method: as §1
In the case of B1, a half-maximal effect (EC50) was put at 15.8 nM.
On the same count and under the same terms, the same measure for B3: 1.8 nM.
